Data on one molecule can be found in paper PMC3502708.

Test [1] addresses T1, MORF PHD1/2 fingers (aa 211-329) (human), Q8WYB5.
T1 chain: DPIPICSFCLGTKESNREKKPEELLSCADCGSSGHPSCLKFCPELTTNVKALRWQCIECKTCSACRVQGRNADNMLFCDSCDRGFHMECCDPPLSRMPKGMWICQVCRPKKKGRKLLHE
As to the kind of experiment: other fluorescence titration.

For test [2], the target named is MOZ PHD1/2 fingers (aa 207-318) (human), Q92794. As to the kind of experiment: other fluorescence titration.
Sequence of MOZ PHD1/2 fingers (aa 207-318) (human), Q92794 (Q92794 207-318): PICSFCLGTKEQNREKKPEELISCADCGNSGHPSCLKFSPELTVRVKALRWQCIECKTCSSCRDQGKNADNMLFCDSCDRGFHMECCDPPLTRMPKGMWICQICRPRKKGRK

B1: unmodified histone H3 peptide (length not stated for the experiment) (peptide)
chain: ARTKQTARKSTG
modifications: not checked
Broadly, the Kd is the constant that tells how readily two partners part at equilibrium. A higher Kd goes with a looser complex. As for B1, the Kd is 4.3 µM in test [1] and 3.9 µM in test [2].
